Results published in publication PMC10757926 (2023).
Where a chain is given by its changes, count along the chain named. Names and notes keep the numbering of the source. Where two headings read alike, the source gives them in different places.

B1: hSIRPα Nb S17 (VHH)
VHH: QVQLVESGGGLVQPGGSLRLSCAASGFTLDSYVIGWFRQAPGKEREGVSCISQRIGSTDYADSVKGRFTISKDNAKNTAYLQMNALKPEDTAVYYCAAGRLYYSGTYCPQGGMSYWGKGSPVTVSS
B2: hSIRPα Nb S44 (VHH)
VHH: QVQLQESGGGLVQPGGSLRLACAASGFTFSSYDMSWVRQAPGKGLEWVSDIKSGGGRTYYADSVKGRFTISRDNAKNTVYLQMNSLKPEDTAVYYCGSLDNSGAYTGGGQGSQVTVSS
B3: hSIRPα Nb S12 (VHH)
VHH: QVQLVESGGGLVQPGGSLRLSCLVSGFSSSYYAIGWFRQAPGKEREGVSCITRSGDTTNYADSVKGRFTISRDDARNTVYLQMNSLKTEDTAVYSCALWAWAGSGRLRCTASEYGHWGQGTQVTVSS
B4: hSIRPα Nb S8 (VHH)
VHH: QVQLVESGGGLVQPGGSLRLSCADSEFRLDEYATGWFRQAPGKEREGVACISRSGSNTKYTDSVKGRFTISRDNAKKTVYLQMNSLKPEDTAVYYCAADLTSHYLSCSSYTDYNSWGQGTQVTVSS
B5: hSIRPα Nb S14 (VHH)
VHH: EVQLVESGGGLVQPGGSLRLSCAASGFTANSYRMTWVRQAPGKGLEWVADIGTGNEWKYYPDSVKGRFTISRDAAKNTVYLQMNSLKPEDTAVYYCAKNGAVWYGEDGLDYWGKGTLVTVSS
B6: hSIRPα Nb S33 (VHH)
VHH: EVQLVESGGGLVQPGGSLRLSCTTSGFTLDYYSVGWFRQAPGKEREGVSCITASGSSTNYANSVKGRFTISRDKVKNTVYLQMSSLKPEDTAVYYCAAEPCTVVAGILQAPTSDFGSWGQGTQVTVSS
B7: hSIRPα Nb S41 (VHH)
VHH: HVQLVESGGGLVQPGGSLRLSCAASGETLDYYAIGYVRQAPGKEREGVSCISSRGDNTNYADSVKGRFTISRDNANNTVYLQMNSLKPEDTAVYYCVAIKDSWQNYYCSVGWVEYDVWGQGTQVTVSS
B8: hSIRPα Nb S7 (VHH)
VHH: HVQLVESGGGLVQVGDSLRLSCAPSGRTFRAYAMAWFRQAPGKEREFVAAIRWIGGTPSYKDSVKGRFTISRDNARNTFYLQMNSLEPQDTGVYYCAAEETQKGSGLGHDGRHYDYWGQGTPVTVSS
B9: hSIRPα Nb S21 (VHH)
VHH: DVQLVESGGGLVQPGGSLTLSCAASGFTSGTYALAYFRQAPGKEREGVSCISNDGGSRNYADSVKGRFTISRDNAKNTMYLQMNSLKPEDTAVYYCAAGPWYYCSDFARRPDGMDYWGKGTPVTVSS
B10: hSIRPα Nb S43 (VHH)
VHH: HVQLVESGGGLVQPGGSARLSCAASGFDLDYFAIGWFRQAPGKEREGVSCISTRSETTNYVDSVKGRFTISRDNAISTVYLQMNNLKPEDTAVYYCAADWADWTMTGCQMTWDDYNYWGQGAQVTVSS
B11: hSIRPα-S36 Nb (VHH)
VHH: EVQLVESGGGLVQPGGSLRLSCAASGFTLDYYAIGWFRQVPGKEREGVSCISSDGGGNTYYADSVKGRFTISRDNAKNTVYLQMNSLKPEDSAVYSCAAGPTYYSGSYCRDPHSDYDYWGQGTQVTVSS
B12: hSIRPα-S36K>R Nb (VHH)
VHH: B11 VHH with K43R, K66R, K77R, K88R
B13: hSIRPα Nb S45 (VHH)
VHH: HVQLVESGGGLVQPGGSLRLSCAARGFSFRDSAMSWARQAPGKGLEWVGAIYSDGSTVYEKSVKGRFTISRDNAKNTMYLQMHSLKPEDSARYYCAPKGVVADEGDYSGQGTLVTVSS
B14: hSIRPα Nb S29 (VHH)
VHH: EVQLVESGGGLVQPGGSLRLSCAASGFTSETYAIGWFRQAPGKEREGVSCISNDGGSRNYADSVKGRFTISRDNAKNTSYLQMNSLKPEDTAVYYCAAGKYYYCLGYVSDGMDYWGKGTPVTVSS

Tests used:
Test in all cases: BLI
[1] = molecular target: T1, biotinylated recombinant hSIRPα (extracellular portion) (human, UniProt P78324 31-373, biotin (Sulfo-NHS-LC-LC-Biotin))
T1 sequence (P78324 31-373): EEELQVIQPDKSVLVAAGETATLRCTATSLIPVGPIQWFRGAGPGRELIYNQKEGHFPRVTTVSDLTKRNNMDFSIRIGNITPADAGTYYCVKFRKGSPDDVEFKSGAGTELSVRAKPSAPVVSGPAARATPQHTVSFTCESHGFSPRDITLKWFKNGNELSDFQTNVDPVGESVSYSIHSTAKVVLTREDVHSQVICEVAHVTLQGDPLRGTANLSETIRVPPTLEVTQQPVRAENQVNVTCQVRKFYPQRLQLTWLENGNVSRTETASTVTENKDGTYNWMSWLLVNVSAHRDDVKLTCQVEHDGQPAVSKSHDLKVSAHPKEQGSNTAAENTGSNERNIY

[2] = molecular target: T1, biotinylated recombinant hSIRPα …; remark: listed apart in the source
[3] = molecular target: T1, biotinylated recombinant hSIRPα …; remark: listed apart in the source

Row | Binder | koff [1] [s⁻¹] | Kd [2] [nM] | Kd [3] [nM]
1 | B1 | 0.00458 | 26.6 | 
2 | B2 | 0.00915 | 4.61 | 
3 | B3 | 0.0127 | 25.9 | 
4 | B4 | 0.0009 | 0.46 | 
5 | B5 | 0.00376 | 16.7 | 
6 | B6 | 0.00544 | 20 | 
7 | B7 | 0.00383 | 5.65 | 
8 | B8 | 0.0123 | 20 | 
9 | B9 |  | 2.56 | 
10 | B10 | 0.131 | 99 | 
11 | B11 | 0.0002 | 0.12 | 
12 | B12 |  |  | 0.19
13 | B13 | 0.00164 | 2.53 | 
14 | B14 | 0.00462 | 4.78 | 
